Results on three molecules are retold here after publication PMC10803776, “Structure of the M. tuberculosis DnaK−GrpE complex reveals how key DnaK roles are controlled” (Nature Communications, 2024).

Data set [1] addresses T1, Mycobacterium tuberculosis DnaK, wild type, full length (Mycobacterium tuberculosis, UniProt P9WMJ9 1-625).
T1 construct: DnaK (Hsp70 chaperone) of Mycobacterium tuberculosis, full length; also called Mtb DnaK; WT DnaK
The data set is described as follows: fluorescence polarisation; direct binding of F-NR to DnaK in the presence of ADP or without nucleotide. The following applies: both partners purified.

Data set [2] deals with T2, Mycobacterium tuberculosis DnaK, full length, wild type (Mycobacterium tuberculosis, UniProt P9WMJ9 1-625).
T2 construct: DnaK (Hsp70 chaperone) of Mycobacterium tuberculosis, full length; also called Mtb DnaK; WT DnaK
The data set is described as follows: ITC. The following applies: both partners purified.

Data set [3] deals with T3, Mycobacterium tuberculosis DnaK Mut-1 (Y106A, L107A) (Mycobacterium tuberculosis, UniProt P9WMJ9 1-625, Y106A | L107A).
T3 construct: DnaK of Mycobacterium tuberculosis, full length, with two alanine substitutions in NBD subdomain IA
The data set is described as follows: ITC. The following applies: both partners purified.

The target in data set [4] is T1, Mycobacterium tuberculosis DnaK, wild …. The data set is described as follows: SEC-MALS. The following applies: both partners purified.
Data set [5] concerns the molecule itself. The data set is described as follows: cryo-EM structure; DnaK 2 μM, DnaJ2 4 μM, GrpE 4 μM, telaprevir 200 μM in 25 mM Tris pH 8.0, 40 mM NaCl, 10 mM MgCl2; no nucleotide; 3.7 Å map.

Ends that are not written are not given here.

B1: N-terminal fluorescein-labeled NR peptide (NRLLLTG) (peptide)
peptide: fluorescein-NRLLLTG
notes: model peptide substrate of DnaK; also called F-NR; fluorescently tagged NR; source: bought: PEPTIDE 2.0 (purity >95%)
With B1, in data set [1], the binding result is reported as “binds”.

B2: Mycobacterium tuberculosis GrpE, full length, wild type (natural protein)
chain: MTDGNQKPDGNSGEQVTVTDKRRIDPETGEVRHVPPGDMPGGTAAADAAHTEDKVAELTADLQRVQADFANYRKRALRDQQAAADRAKASVVSQLLGVLDDLERARKHGDLESGPLKSVADKLDSALTGLGLVAFGAEGEDFDPVLHEAVQHEGDGGQGSKPVIGTVMRQGYQLGEQVLRHALVGVVDTVVVDAAELESVDDGTAVADTAENDQADQGNSADTSGEQAESEPSGS
notes: GrpE (nucleotide exchange factor) of Mycobacterium tuberculosis, full length; also called Mtb GrpE; WT GrpE
With B2, the dissociation constant Kd was 240 nM in data set [2] and 1070 nM in data set [3]. The “stoichiometry N” value in data set [2] was 0.69; in data set [3] it was 0.13.

B3: Mycobacterium tuberculosis GrpE, wild type, full length (natural protein)
chain: MTDGNQKPDGNSGEQVTVTDKRRIDPETGEVRHVPPGDMPGGTAAADAAHTEDKVAELTADLQRVQADFANYRKRALRDQQAAADRAKASVVSQLLGVLDDLERARKHGDLESGPLKSVADKLDSALTGLGLVAFGAEGEDFDPVLHEAVQHEGDGGQGSKPVIGTVMRQGYQLGEQVLRHALVGVVDTVVVDAAELESVDDGTAVADTAENDQADQGNSADTSGEQAESEPSGS
notes: GrpE (nucleotide exchange factor) of Mycobacterium tuberculosis, full length, 235 residues (C-terminal residues printed as aa 188-235); also called Mtb GrpE; WT GrpE
Take B3: the “stoichiometry N” value in data set [4] amounted to 2 GrpE per DnaK; in data set [5], 2.
